Our source for the EC50 values is patent US20260148804A1 (NANJING GENSCRIPT BIOTECH, published 2026).

For this test, the target named is T1, recombinant TNFRSF9 protein (Homo sapiens (Human), UniProt Q07011 24-186).
T1 construct: also called 4-1BB; antigen
As to the kind of experiment: indirect ELISA, plate coated with 0.5 ug/ml recombinant TNFRSF9 protein, antibody titrated 3-fold from 1 ug/ml.

Experimental: The antibody affinity detection method was an enzyme-linked immunosorbent assay (ELISA) based on an indirect method. Indirect ELISA was used for evaluating the ability of the purified antibody to bind the antigen TNFRSF9 protein. The specific steps were as follows: the ELISA plate was coated with 0.5 μg/ml recombinant TNFRSF9 protein in PBS at 100 μl/well at 4° C. overnight. The plate was washed with PBS-T (0.05% Tween) and blocked with 250 μl/well of PBST containing 1% BSA at 37° C. for 2 hours. Subsequently, the blocking solution was discarded, and 100 μl of the 1 μg/ml purified antibody was added to the first well and 3-fold diluted in a gradient to prepare a total of 11 serial test concentrations, and additionally a blank well was prepared. The plate was then incubated at 37° C. for 1 hour. […] The plate was washed four times with PBST, a TMB color development solution (GenScript) was then added, and the plate was incubated in the dark at 25° C. for 15 minutes. […] The plate was read at 450 nm using a microplate reader.

B1: 81E11WTH (antibody, V domains shown)
VH: QSVKESEGGLFKPTDTLTLACTVSGFSLSYNAITWVRQAPGNGLEWIGVINYDGTTVYASWAKSRSTITRNTNLNTVTLKMTSLTAADTATYFCARNFNIWGPGTLVTVSS
VL: AAVLTQTPSPVSVTVGGTVTINCQASQSVDNNNYLAWFQQKPGQPPKQLIYSASTLASGVSSRFKGSGSGTQFTLTISGVQCDDAATYYCLGEFSASSGDWNAFGGGTEVVVK
notes: also called control 81E11WTH
One may read the EC50 as the concentration at which the effect is half-maximal. As to B1, the EC50 was 2.6 ng/mL.
